Test results from patent US20250281586A1 (ELANCO US, published 2025).

Assays:
[1] = molecular target: T1, recombinant mouse IL-1RI Fc chimera (R&D 771-MR-100) (mouse, UniProt P13504 20-338); test: ELISA on coated mouse IL-1RI Fc chimera
T1 construct: Coated on ELISA plates at 1 µg/ml; used in place of canine and feline IL-1RI, which were not commercially available; also called IL-1RI receptor; Fc part of the bought chimera not given; not described
T1 sequence (looked up): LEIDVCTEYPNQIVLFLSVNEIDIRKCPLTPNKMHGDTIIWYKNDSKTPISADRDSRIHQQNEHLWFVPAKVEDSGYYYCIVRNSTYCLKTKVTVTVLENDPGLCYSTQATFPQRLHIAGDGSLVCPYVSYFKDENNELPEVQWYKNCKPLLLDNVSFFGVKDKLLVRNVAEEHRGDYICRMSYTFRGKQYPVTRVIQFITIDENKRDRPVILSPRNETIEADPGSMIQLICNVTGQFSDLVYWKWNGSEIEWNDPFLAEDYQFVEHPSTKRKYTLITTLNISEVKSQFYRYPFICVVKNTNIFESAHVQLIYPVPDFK

[2] = molecular target: T1, recombinant mouse IL-1RI Fc chimera …; test: ELISA on coated mouse IL-1RI Fc chimera, detection with biotinylated anti-fIL-1β antibody
[3] = molecular target: T1, recombinant mouse IL-1RI Fc chimera …; test: ELISA on coated mouse IL-1RI Fc chimera, detection with biotinylated anti-cIL-1β antibody

B1: cIL1b-D145K-CMV-Ntt830-E4 VLPs (other)
chain 1: MGQYIKANSKFIGITERRRRPRRGSRSAPSSADANFRVLSQQLSRLNKTLAAGRPTINHPTFVGSERCKPGYTFTSITLKPPKIDRGSGGGSEEEEGGGSGSYYGKRLLLPDSVTEYDKKLVSRIQIRVNPLPKFDSTVWVTVRKVPASSDLSVAAISAMFADGASPVLVYQYAASGVQANNKLLYDLSAMRADIGDMRKYAVLVYSKDDALETDELVLHVDVEHQRIPTSGVLPV
chain 2: MGSAAMQSVDCKLQDISHKYLVLSNSYELRALHLNGENVNKQVVFHMSFVHGDESNNKIPVVLGIKQKNLYLSCVMKDGKPTLQLEKVDPKVYPKRKMEKRFVFNKIEIKNTVEFESSQYPNWYISTSQVEGMPVFLGNTRGGQDITKFTMEFSSTSHHHHHHGGCG
modifications: engineered free cysteine linked to the maleimide of SMPH bound to the VLP; lysine on the VLP surface derivatized with SMPH
notes: also called cIL1b-D145K-CMV-Ntt830-E4 vaccine; cIL-1b-D145K-CMV vaccine
binding result [1]: binds

B2: feline IL-1β-D145K mutein antigen (ligand)
chain: GSAAIQSQDYTFRDISQKSLVLSGSYELRALHLNGQNMNQQVVFRMSFVHGEENSKKIPVVLCIKKNNLYLSCVMKDGKPTLQLEMLDPKVYPKKKMEKRFVFNKTEIKGNVEFESSQFPNWYISTSQAEEMPVFLGNTKGGQDITKFIMESASTSHHHHHHGGCG
notes: also called fIL-1β-D145K antigen
binding result [2]: binds

B3: purified feline IL-1β wild type of SEQ ID NO:38 (ligand)
chain: AAIQSQDYTFRDISQKSLVLSGSYELRALHLNGQNMNQQVVFRMSFVHGEENSKKIPVVLCIKKNNLYLSCVMKDGKPTLQLEMLDPKVYPKKKMEKRFVFNKTEIKGNVEFESSQFPNWYISTSQAEEMPVFLGNTKGGQDITDFIMESAS
notes: also called purified wild type feline IL-1β; recombinant feline wild type IL-1β
binding result [2]: binds

B4: fIL-1b-D145K-CMV-Ntt830-E4 VLPs (other)
chain 1: MGQYIKANSKFIGITERRRRPRRGSRSAPSSADANFRVLSQQLSRLNKTLAAGRPTINHPTFVGSERCKPGYTFTSITLKPPKIDRGSGGGSEEEEGGGSGSYYGKRLLLPDSVTEYDKKLVSRIQIRVNPLPKFDSTVWVTVRKVPASSDLSVAAISAMFADGASPVLVYQYAASGVQANNKLLYDLSAMRADIGDMRKYAVLVYSKDDALETDELVLHVDVEHQRIPTSGVLPV
chain 2: GSAAIQSQDYTFRDISQKSLVLSGSYELRALHLNGQNMNQQVVFRMSFVHGEENSKKIPVVLCIKKNNLYLSCVMKDGKPTLQLEMLDPKVYPKKKMEKRFVFNKTEIKGNVEFESSQFPNWYISTSQAEEMPVFLGNTKGGQDITKFIMESASTSHHHHHHGGCG
modifications: engineered free cysteine linked to the maleimide of SMPH bound to the VLP; lysine on the VLP surface derivatized with SMPH
notes: also called fIL-1b-D145K-CMV-Ntt830-E4 vaccine; fIL1b145K-CMV-Ntt830-E4 vaccine
binding result [1]: binds

B5: canine IL-1β-D145K mutein antigen (ligand)
chain: MGSAAMQSVDCKLQDISHKYLVLSNSYELRALHLNGENVNKQVVFHMSFVHGDESNNKIPVVLGIKQKNLYLSCVMKDGKPTLQLEKVDPKVYPKRKMEKRFVFNKIEIKNTVEFESSQYPNWYISTSQVEGMPVFLGNTRGGQDITKFTMEFSSTSHHHHHHGGCG
notes: expressed in E. coli and purified by IMAC and gel filtration; also called cIL-1β-D145K antigen; cIL1b-D145K-C6Hcg
binding result [3]: binds

B6: canine IL-1β wild type of SEQ ID NO:29 (ligand)
chain: AAMQSVDCKLQDISHKYLVLSNSYELRALHLNGENVNKQVVFHMSFVHGDESNNKIPVVLGIKQKNLYLSCVMKDGKPTLQLEKVDPKVYPKRKMEKRFVFNKIEIKNTVEFESSQYPNWYISTSQVEGMPVFLGNTRGGQDITDFTMEFSS
notes: also called purified canine IL-1β wild type; wild type canine IL-1β
binding result [3]: binds

B7: commercially available recombinant canine IL-1β protein (R&D 3747-CL-025) (ligand, UniProt Q28292 115-266, looked up)
chain: AAMQSVDCKLQDISHKYLVLSNSYELRALHLNGENVNKQVVFHMSFVHGDESNNKIPVVLGIKQKNLYLSCVMKDGKPTLQLEKVDPKVYPKRKMEKRFVFNKIEIKNTVEFESSQYPNWYISTSQVEGMPVFLGNTRGGQDITDFTMEFSS
notes: Bought protein; also called recombinant canine IL-1β purchased from R&D system; commercially available canine IL-1β standard
binding result [3]: binds
